Measurements: patent US20240174992A1, “SPLIT MODIFIED DEHALOGENASE VARIANTS” (Promega Corporation, priority 2022, published 2024)
Blank lines part the entries; values can stand above or below the substance they belong to.

Key:
Assay in all cases: cell-based or functional assay
HT(146-297)-FRB = HT(146-297)-FRB (UniProt P42345)
[1] = biological target: HT(23-297)-FRB fragment fused to LgBiT (UniProt P42345)
HaloTag[22-297](M2F)-FRB = HaloTag[22-297](M2F)-FRB (UniProt P42345)
[2] = biological target: HaloTag[22-297](Q145H+P154R)-FRB (UniProt P42345)
[196-297]-FRB = [196-297]-FRB (UniProt P42345)
HT(158-297)-FRB = HT(158-297)-FRB (UniProt P42345)
HT(158-297)-FRB, sequence (P42345 other isoform, or with tags, fused parts or gaps limits assumed): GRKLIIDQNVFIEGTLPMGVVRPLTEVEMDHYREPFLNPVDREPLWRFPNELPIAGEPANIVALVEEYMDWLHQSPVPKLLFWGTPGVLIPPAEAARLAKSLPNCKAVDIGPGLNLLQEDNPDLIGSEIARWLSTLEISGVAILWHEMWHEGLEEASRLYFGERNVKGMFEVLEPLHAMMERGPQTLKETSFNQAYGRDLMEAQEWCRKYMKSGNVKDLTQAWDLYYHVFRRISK

EGFP-FKBP-HaloTag[3-19], sequence (P62942 other isoform, or with tags, fused parts or gaps): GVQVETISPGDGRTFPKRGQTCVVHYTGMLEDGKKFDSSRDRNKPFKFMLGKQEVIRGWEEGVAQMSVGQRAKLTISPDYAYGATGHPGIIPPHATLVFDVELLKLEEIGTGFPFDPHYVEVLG
HaloTag[22-297](Q145H+P154R)-FRB, sequence (P42345 other isoform, or with tags, fused parts or gaps Q145H P154R Q145H P154R): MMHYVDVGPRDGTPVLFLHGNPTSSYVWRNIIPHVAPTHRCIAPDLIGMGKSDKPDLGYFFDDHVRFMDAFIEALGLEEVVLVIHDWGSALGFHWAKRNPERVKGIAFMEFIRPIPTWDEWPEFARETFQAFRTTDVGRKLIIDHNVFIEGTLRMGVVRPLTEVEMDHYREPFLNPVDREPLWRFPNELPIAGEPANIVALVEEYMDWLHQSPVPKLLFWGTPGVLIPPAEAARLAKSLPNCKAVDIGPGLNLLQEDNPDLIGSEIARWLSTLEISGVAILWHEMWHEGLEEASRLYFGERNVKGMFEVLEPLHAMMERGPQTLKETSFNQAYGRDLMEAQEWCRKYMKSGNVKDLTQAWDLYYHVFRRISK
HaloTag[22-297](M2F)-FRB, sequence (P42345 other isoform, or with tags, fused parts or gaps): as the sequence (P42345 other isoform, or with tags, fused parts or gaps Q145H P154R Q145H P154R) above, with M2F, H145Q, R154P counted along it
HT(23-297)-FRB fragment fused to LgBiT, sequence (P42345 other isoform, or with tags, fused parts or gaps): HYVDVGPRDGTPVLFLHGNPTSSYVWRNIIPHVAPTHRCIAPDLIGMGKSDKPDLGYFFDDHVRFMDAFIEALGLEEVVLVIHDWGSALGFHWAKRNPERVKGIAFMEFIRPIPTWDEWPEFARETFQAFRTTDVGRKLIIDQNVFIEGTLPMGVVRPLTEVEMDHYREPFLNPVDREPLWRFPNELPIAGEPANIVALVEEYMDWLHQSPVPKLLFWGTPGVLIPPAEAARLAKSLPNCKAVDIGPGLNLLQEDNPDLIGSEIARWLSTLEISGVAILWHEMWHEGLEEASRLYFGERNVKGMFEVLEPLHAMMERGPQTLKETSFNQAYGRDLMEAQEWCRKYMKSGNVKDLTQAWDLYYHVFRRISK
[196-297]-FRB, sequence (P42345 other isoform, or with tags, fused parts or gaps limits assumed): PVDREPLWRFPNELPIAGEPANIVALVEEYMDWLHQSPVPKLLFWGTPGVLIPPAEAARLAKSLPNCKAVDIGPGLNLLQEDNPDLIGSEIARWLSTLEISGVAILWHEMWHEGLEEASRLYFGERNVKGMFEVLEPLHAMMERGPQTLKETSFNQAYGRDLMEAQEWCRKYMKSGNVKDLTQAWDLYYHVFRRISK
FKBP-HT(1-33) fragment as SmBiT or HiBiT fragment fusions, sequence (P62942 other isoform, or with tags, fused parts or gaps): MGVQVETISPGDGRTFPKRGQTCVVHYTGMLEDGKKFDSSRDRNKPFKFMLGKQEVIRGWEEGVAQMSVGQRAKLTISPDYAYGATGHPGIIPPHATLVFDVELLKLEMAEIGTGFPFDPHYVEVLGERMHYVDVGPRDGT
[1-195]-FKBP, sequence (P62942 other isoform, or with tags, fused parts or gaps): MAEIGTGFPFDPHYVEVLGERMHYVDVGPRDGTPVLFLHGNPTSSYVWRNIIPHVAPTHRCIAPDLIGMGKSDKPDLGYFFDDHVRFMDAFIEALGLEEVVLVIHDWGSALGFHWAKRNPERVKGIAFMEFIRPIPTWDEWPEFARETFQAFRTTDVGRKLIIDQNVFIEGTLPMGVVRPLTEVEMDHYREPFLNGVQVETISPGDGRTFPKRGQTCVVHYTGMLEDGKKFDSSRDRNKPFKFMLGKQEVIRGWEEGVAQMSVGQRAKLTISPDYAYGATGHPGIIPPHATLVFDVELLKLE
HT(146-297)-FRB, sequence (P42345 other isoform, or with tags, fused parts or gaps limits assumed): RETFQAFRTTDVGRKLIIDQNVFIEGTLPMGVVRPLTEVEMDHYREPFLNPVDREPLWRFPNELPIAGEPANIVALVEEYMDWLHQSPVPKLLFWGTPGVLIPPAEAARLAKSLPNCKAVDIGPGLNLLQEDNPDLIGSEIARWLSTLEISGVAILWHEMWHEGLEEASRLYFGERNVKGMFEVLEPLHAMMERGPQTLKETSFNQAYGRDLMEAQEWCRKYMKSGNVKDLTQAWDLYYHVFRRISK
HT(1-157)-FKBP, sequence (P62942 other isoform, or with tags, fused parts or gaps): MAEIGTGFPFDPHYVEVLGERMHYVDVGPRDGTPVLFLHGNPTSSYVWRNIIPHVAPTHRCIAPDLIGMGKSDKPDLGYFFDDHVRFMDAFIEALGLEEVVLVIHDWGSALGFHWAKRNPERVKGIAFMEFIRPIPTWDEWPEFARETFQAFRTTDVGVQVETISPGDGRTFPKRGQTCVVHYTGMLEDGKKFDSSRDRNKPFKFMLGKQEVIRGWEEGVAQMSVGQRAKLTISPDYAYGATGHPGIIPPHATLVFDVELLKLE
HT(1-145)-FKBP, sequence (P62942 other isoform, or with tags, fused parts or gaps): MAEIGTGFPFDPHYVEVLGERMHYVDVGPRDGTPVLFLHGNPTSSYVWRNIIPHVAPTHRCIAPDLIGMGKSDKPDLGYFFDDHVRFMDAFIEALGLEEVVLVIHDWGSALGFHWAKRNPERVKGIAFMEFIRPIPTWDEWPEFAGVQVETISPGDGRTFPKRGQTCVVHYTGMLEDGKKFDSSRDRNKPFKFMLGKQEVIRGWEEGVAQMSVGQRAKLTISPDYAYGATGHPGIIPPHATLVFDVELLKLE

fold increase of JF646 and JF585 fluorescence in live HeLa cells with 50 nM rapamycin (HT(146-297)-FRB): < 2 fold
Substance: HT(1-145)-FKBP (from UniProt P62942 2-108)

fold increase in NanoBiT luminescence on addition of rapamycin [1]: 100 to 250 fold
Substance: FKBP-HT(1-33) fragment as SmBiT or HiBiT fragment fusions (from UniProt P62942 1-108)

S:B ratio in +rapamycin/-rapamycin conditions, live HeLa imaging (HaloTag[22-297](M2F)-FRB): 6.7
signal-to-background ratio, complemented split HaloTag with rapamycin over the large HaloTag alone (HaloTag[22-297](M2F)-FRB): 16
S:B ratio in +rapamycin/-rapamycin conditions, live HeLa imaging [2]: 4
fold response of JF646 fluorescence to rapamycin, live HeLa imaging [2]: 25 fold
signal-to-background ratio, complemented split HaloTag with rapamycin over the large HaloTag alone [2]: 5.7
Substance: EGFP-FKBP-HaloTag[3-19] (from UniProt P62942 2-108)

Further lines, the substance ahead of its results:

Substance: [1-195]-FKBP (from UniProt P62942 2-108)
fold increase in JF646 fluorescence with 50 nM rapamycin (E. coli lysates) ([196-297]-FRB): 4.7 fold
fold increase of JF646 and JF585 fluorescence in live HeLa cells with 50 nM rapamycin ([196-297]-FRB): < 2 fold

Substance: HT(1-157)-FKBP (from UniProt P62942 2-108)
fold increase of JF646 and JF585 fluorescence in live HeLa cells with 50 nM rapamycin (HT(158-297)-FRB): < 2 fold
